Laboratory results as given in patent US11434267B2, “Peptides having reduced toxicity that stimulate cholesterol efflux” (The Regents of the University of California, priority 2013, dated 2022).

Assays:
[1] = tested on: New Zealand White rabbits; experiment: High-dose IV bolus toxicity of ATI-5261 in rabbits (plasma ALT, AST, TG, cholesterol); format: in vivo, rabbit
Source text: Peptides or peptidomeimetics of the invention can be evaluated for toxicity using known assays. Examples of such assays are illustrated in the Examples section. Toxicity is typically assayed in a rat, rabbit, mouse, monkey or dog model. […] Safety chemistry panels including plasma alanine aminotransferase (ALT), aspartate amino transferase (AST), and creatine kinase (CK) can then be determined in the blood. The presence of elevated levels of these enzymes in the blood compared to control normal values is indicative of toxicity. A peptide of the invention is typically considered to be non-toxic or to have little toxicity, when the results using the highest dose, 300 mg/kg in this illustrative assay, are equivalent (fall within the standard deviation) of the values measured for the control animals that received vehicle alone, or are no more than 2 or 3 times background obtained with vehicle alone. […]
Cytotoxicity of an HDL mimetic peptide ATI-5261 at high doses was evaluated in rats and rabbits (FIG. 1). […]
For the experiments in FIG. 2, male chow-fed Wistar rats (Panels A and B) were administered ATI-5261 at doses of 3, 30, and 300 mg/kg as described in FIG. 1. Plasma triglyceride (TG, Panel A) and unesterified cholesterol (Panel B) concentrations were determined enzymatically at the times indicated. […]

ABCG1 = target: T1, ABCG1 (Homo sapiens, UniProt P45844); experiment: ABCG1 mediated cholesterol efflux from BHK cells stably transfected with ABCG1; format: cell-based; details: BHK-ABCG1 vs mock, 50 μg peptide/ml, time-course and 4 h
T1 construct: expressed in transfected cells; host or cells: BHK cells, stably transfected
Source text: To further evaluate potential anti-atherogenic mechanisms of CS6253, BHK cells stably transfected with ABCG1 and mock-transfected control cells were labeled with [3H]cholesterol and used in efflux experiments. […] Panel A—Time-course for ABCG1 mediated cholesterol efflux from cells to lipid-free CS6253 peptide or CS6253:POPC complexes. […] Panel B—Comparison between CS6253 and ATI-5261 in mediating cellular cholesterol efflux via ABCG1. [3H]cholesterol labeled BHK cells (ABCG1 vs. mock transfected; left bars, control BHK, right bars, G1-BHK) were incubated with either lipid-free peptide or peptides formulated with POPC.

ABCA1 = target: T2, ABCA1 (Mus musculus, UniProt P41233); experiment: ABCA1-dependent cholesterol efflux from [3H]cholesterol-labeled J774 macrophages with and without cAMP; format: cell-based; details: cAMP treated J774, dose response, 4 h
T2 construct: treated (18 h) with a cAMP analog to induce ABCA1 protein expression; endogenous in cells; host or cells: J774 macrophages
Source text: Suitable cholesterol efflux assays are described in, e.g., Bielicki, J. K and Oda, M. N., Biochemistry, 41:2089-2096 (2002); Jia et al., Biochem. Biophys. Res. Common., 297:206-213 (2002). In some embodiments, a polypeptide known to mediate cholesterol efflux (e.g., helix 9/10 of Apo A-I) is used to screen for additional mediators of cholesterol efflux in a cell based assay. For example, cell lines in which cholesterol efflux can be enhanced using a cAMP analog that up-regulates ABCA1 protein expression (e.g., J774 macrophages) can conveniently be used to assess the ability of a polypeptide of the present invention to mediate cholesterol efflux. The cells are incubated with labeled cholesterol (e.g., [^3H]cholesterol) under conditions appropriate for cholesterol uptake by the cells. Thus, cAMP or cAMP analogs (e.g., CPT-cAMP) are incubated with the cells for a suitable time before the initiation of cellular cholesterol efflux, i.e., prior to contacting the cells with a test polypeptide. Measurement of labeled cholesterol appearing in the medium is used to determine the cholesterol efflux mediating activity of the test polypeptide.
Aliphatic analogs of ATI-5261 lacking phenylalanine residues retained potent ABCA1 selective cholesterol efflux activity (FIG. 7). J774 macrophages were labeled (48 h) with [^3H]cholesterol and treated (18 h) with a cAMP analog to induce ABCA1 protein expression; cells incubated in the absence of cAMP (left bars) served as controls. […] Peptides were used at a concentration of 30 μg/ml, which was maximal for promoting cholesterol efflux activity. Panel B—Dependence of cholesterol efflux on the concentration of peptides. […] Results are expressed as the difference in cholesterol efflux (%/4 h) observed using cAMP treated vs. non-treated J774 cells. Values are means±SD, n=3.

T2 sequence (P41233 whole entry): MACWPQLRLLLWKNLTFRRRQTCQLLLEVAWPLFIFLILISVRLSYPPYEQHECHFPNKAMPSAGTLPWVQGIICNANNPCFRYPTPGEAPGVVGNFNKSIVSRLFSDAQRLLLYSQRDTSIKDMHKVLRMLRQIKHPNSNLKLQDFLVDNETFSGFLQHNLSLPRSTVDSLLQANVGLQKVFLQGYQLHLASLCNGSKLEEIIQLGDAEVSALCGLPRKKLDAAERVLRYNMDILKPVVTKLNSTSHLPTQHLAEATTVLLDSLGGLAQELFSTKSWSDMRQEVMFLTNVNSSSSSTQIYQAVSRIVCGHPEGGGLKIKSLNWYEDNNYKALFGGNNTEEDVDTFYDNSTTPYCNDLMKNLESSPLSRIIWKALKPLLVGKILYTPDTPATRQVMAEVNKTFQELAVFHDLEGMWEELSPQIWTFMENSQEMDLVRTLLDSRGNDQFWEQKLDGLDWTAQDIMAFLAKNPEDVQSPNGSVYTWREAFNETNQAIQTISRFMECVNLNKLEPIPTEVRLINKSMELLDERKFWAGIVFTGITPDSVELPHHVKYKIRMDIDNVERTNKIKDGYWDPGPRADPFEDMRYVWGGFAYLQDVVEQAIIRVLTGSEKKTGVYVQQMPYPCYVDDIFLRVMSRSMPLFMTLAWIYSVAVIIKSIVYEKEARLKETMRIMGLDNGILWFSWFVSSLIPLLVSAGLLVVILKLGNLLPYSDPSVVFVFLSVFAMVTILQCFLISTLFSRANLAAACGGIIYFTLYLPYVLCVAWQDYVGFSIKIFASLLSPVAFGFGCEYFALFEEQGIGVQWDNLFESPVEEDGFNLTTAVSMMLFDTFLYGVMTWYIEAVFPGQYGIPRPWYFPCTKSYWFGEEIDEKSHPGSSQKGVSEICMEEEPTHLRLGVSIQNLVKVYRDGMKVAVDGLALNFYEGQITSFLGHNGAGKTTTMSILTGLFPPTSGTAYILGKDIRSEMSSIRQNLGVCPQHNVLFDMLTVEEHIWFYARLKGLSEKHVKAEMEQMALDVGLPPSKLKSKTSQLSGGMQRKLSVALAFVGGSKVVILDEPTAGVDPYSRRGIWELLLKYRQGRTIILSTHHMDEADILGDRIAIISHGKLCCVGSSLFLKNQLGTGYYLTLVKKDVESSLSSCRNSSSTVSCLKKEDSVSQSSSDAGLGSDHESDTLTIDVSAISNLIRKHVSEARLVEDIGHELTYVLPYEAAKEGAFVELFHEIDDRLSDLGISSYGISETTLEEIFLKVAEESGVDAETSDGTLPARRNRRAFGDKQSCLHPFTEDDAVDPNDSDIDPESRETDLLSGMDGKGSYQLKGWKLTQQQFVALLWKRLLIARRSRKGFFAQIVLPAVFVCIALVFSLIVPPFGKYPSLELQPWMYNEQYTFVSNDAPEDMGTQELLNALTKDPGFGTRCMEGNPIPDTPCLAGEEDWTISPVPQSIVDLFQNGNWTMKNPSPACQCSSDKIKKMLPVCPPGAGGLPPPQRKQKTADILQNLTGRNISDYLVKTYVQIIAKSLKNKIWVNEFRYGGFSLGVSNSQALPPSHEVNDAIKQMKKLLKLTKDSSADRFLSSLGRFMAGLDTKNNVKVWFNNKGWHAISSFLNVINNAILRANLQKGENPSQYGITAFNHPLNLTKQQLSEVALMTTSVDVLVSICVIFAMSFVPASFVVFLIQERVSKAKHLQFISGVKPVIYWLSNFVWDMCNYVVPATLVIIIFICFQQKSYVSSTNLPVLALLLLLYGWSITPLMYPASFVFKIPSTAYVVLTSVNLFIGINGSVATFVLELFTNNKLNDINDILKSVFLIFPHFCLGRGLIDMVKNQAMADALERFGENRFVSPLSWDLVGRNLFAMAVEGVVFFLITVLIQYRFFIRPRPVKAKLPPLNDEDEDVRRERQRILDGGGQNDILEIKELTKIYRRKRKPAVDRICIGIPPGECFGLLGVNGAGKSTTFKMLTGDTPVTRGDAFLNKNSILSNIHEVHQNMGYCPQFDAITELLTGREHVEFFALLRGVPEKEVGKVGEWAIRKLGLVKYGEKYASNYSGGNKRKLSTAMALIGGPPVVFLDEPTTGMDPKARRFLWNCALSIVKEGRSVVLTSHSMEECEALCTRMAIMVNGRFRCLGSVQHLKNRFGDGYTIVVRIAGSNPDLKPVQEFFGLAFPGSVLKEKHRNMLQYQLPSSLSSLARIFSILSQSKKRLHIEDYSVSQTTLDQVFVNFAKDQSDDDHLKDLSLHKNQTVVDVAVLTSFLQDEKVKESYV

“ATI-5261: HDL mimetic peptide, parent peptide with phenylalanine and arginine residues; toxic at high doses; used as positive control (EVRSKLEEWFAAFREFAEEFLARLKS)” was tested, and the “plasma triglycerides and unesterified cholesterol” value ([1]; single IV bolus) was “increased plasma triglycerides and cholesterol”, the “cytotoxic response (plasma ALT, AST)” value ([1]; single IV bolus 3, 30 or 300 mg/kg) was “induced a cytotoxic response” and the “cholesterol efflux via ABCG1” value (ABCG1) was “poorly active”. For the same substance, the “peptide concentration at saturation of cholesterol efflux” value (ABCA1) was “roughly 3 μg/ml”.
